According to the RNAGym collection of RNA variant scans (doi:10.7554/elife.90254):

B1: OR4K15 (parent)
chain: GUUAACGGUCAUAGGCCAUGGAAACUAGGAGCACCAUUUCGCUGCCAGUGAAGAAAUGAACAAAGAAAAUCUGGGCCAGGCAGGCAUCAAAAGAAAUAGUCUUGCGCUCAACCAGAAAGUCUGUAAUCAUUUUAAGGGUA

Variants of: B1
Assay: self-cleavage, relative activity (ratio to wild type); higher = more cleavage; in vitro, sequencing; the parent is a self-cleaving ribozyme
With A117G A134G the self-cleavage was 0.61. Work on A111G G138U yielded a self-cleavage of 0.01. Variant A114G U124C has a self-cleavage of 0.07. Variant A114G U124G has a self-cleavage of 0.21. A111G A126U showed a self-cleavage of 0.01. For A110U U131C, the self-cleavage was 0.65. For A126C U132G, the self-cleavage was 0.89. A110C A135U showed a self-cleavage of 0.06. In the case of U120C U127C, the self-cleavage is reported as 0.43. G115A U120C gave a self-cleavage of 0.03. With A114G U133C the self-cleavage was 0.12. Work on G115A A118G yielded a self-cleavage of 0.04. U120C A125U showed a self-cleavage of 1.38. U120C A125G showed a self-cleavage of 0.43. With A126U U131C the self-cleavage was 1.84. For U122C, the self-cleavage was 0.93. Work on U122A yielded a self-cleavage of 1.21. U122G showed a self-cleavage of 2.57. For U122C A129U, the self-cleavage was 0.49. Work on U122C U139A yielded a self-cleavage of 1.1. A111G G136U showed a self-cleavage of 0.02. With A111U A116G the self-cleavage was 0.04. For U122C A140U, the self-cleavage was 1.13. In the case of U122C A140G, the self-cleavage is reported as 1.32. C112G A135U gave a self-cleavage of 0.01. With U120A U132C the self-cleavage was 1.37. With U120A the self-cleavage was 1.61. For U120C, the self-cleavage was 0.8. U120G gave a self-cleavage of 1.31. A110U U130C gave a self-cleavage of 1.06. Variant U122C U124C has a self-cleavage of 0.67. In the case of A111G A135G, the self-cleavage is reported as 0.02. C112U A118G gave a self-cleavage of 0. For A114U A116G, the self-cleavage was 0.01. With G119C the self-cleavage was 1.04. G119U showed a self-cleavage of 1.82. In the case of G119A, the self-cleavage is reported as 2.29. Work on A116G A117U yielded a self-cleavage of 0.44. A117G A126G gave a self-cleavage of 1.27. In the case of A114G A117G, the self-cleavage is reported as 0.37. For A117U A135G, the self-cleavage was 0.7. Work on A111U A125G yielded a self-cleavage of 0.01. A125G U132C gave a self-cleavage of 0.52. A125G U132A showed a self-cleavage of 0.32. With A118G A140U the self-cleavage was 1.28. Variant A118G A140G has a self-cleavage of 1.32. For A110G A114G, the self-cleavage was 0.05. A110G A114C showed a self-cleavage of 0.01. With A110G A114U the self-cleavage was 0.03. A114G A129G showed a self-cleavage of 0.07. Variant A114G A129U has a self-cleavage of 0.13. A116U U120C showed a self-cleavage of 0.15. U122C U131G showed a self-cleavage of 0.88. Variant U122C U131C has a self-cleavage of 1.13. For U122C U131A, the self-cleavage was 1.25. With A110G A125C the self-cleavage was 0.17. A125U U127C showed a self-cleavage of 1.28. Variant A111G A117C has a self-cleavage of 0. For A111G A117U, the self-cleavage was 0. A117U U131G gave a self-cleavage of 1.38. A117U U131C showed a self-cleavage of 1.01. With A118G A134U the self-cleavage was 1.03. A114U A118U gave a self-cleavage of 0.02. Variant A118G U120A has a self-cleavage of 2.61. For A118G U120G, the self-cleavage was 0.59. With A110G A116G the self-cleavage was 0.06. Work on A110U U120C yielded a self-cleavage of 0.08. A114G A135G showed a self-cleavage of 0.93. Variant A114G A135U has a self-cleavage of 0.15. Variant A118U U127C has a self-cleavage of 0.02. In the case of C113U U120C, the self-cleavage is reported as 0.04. With C112U A129G the self-cleavage was 0.01. For U124A U132C, the self-cleavage was 0.13. Work on A114C A117G yielded a self-cleavage of 0.05. A111C A135U showed a self-cleavage of 0.03. Work on A118U U139A yielded a self-cleavage of 0.6. A116G U120C showed a self-cleavage of 0.27. In the case of A125C A126G, the self-cleavage is reported as 0.12. A111G U139G gave a self-cleavage of 0.02. A111G U139C showed a self-cleavage of 0.01. For U120G U139A, the self-cleavage was 1.61. U120A A126G showed a self-cleavage of 1.64. A110G A129U gave a self-cleavage of 0.08. In the case of A110G A129G, the self-cleavage is reported as 0.11. With A125G A126G the self-cleavage was 0.68. Variant A125G A129U has a self-cleavage of 0.01. Variant A114C G137A has a self-cleavage of 0.07. Work on C121U U127C yielded a self-cleavage of 1.46. C112G U124C gave a self-cleavage of 0. Work on A125U A134G yielded a self-cleavage of 1.48. A116U U122C gave a self-cleavage of 0.21. For U124A U133G, the self-cleavage was 0.43. For A110U A140G, the self-cleavage was 2.04. Variant A117G U130A has a self-cleavage of 0.26. For A117G U130C, the self-cleavage was 0.39. For G123U U130C, the self-cleavage was 0.44. C112U A140U showed a self-cleavage of 0.01. Variant U120A U124C has a self-cleavage of 1.04. With A111G U122C the self-cleavage was 0.01. Variant A114U A140U has a self-cleavage of 0.1. Work on A118U A126G yielded a self-cleavage of 0.17. Variant A114G A126G has a self-cleavage of 0.28. For A114G A126U, the self-cleavage was 0.46. A114C U124C showed a self-cleavage of 0.03. In the case of A114G C128U, the self-cleavage is reported as 0.11. In the case of U120A A140G, the self-cleavage is reported as 1.13. In the case of U120A A140U, the self-cleavage is reported as 1.67. With A118C U130C the self-cleavage was 0.93. For A116U U127C, the self-cleavage was 0.23. Work on A116G G138A yielded a self-cleavage of 0.8. For A117G A125G, the self-cleavage was 0.66. In the case of A110C U132A, the self-cleavage is reported as 0.25. With A126U U127C the self-cleavage was 0.5. Variant A114G G123A has a self-cleavage of 0.12. A116C U130C gave a self-cleavage of 0.06. A110U G137A gave a self-cleavage of 1.55. A114G A118U showed a self-cleavage of 0.04. A114G A118C gave a self-cleavage of 0.11. In the case of A117U A125G, the self-cleavage is reported as 0.99. In the case of A114U G123A, the self-cleavage is reported as 0.11. Variant U122C A134U has a self-cleavage of 1.75. Variant A116G U124C has a self-cleavage of 0.36. Variant C112G U122A has a self-cleavage of 0.05. For A118G U122A, the self-cleavage was 0.79. Variant A114U U130C has a self-cleavage of 0.01. With A116U A129U the self-cleavage was 0.29. In the case of U120C C128A, the self-cleavage is reported as 0.69. For A125G A135U, the self-cleavage was 0.54. Work on A117C G136A yielded a self-cleavage of 0.78. A125G U127C showed a self-cleavage of 0.27. For A125G U127A, the self-cleavage was 1.11. In the case of A126G A134G, the self-cleavage is reported as 1.17. Variant C113G U131C has a self-cleavage of 0. For U120A U130A, the self-cleavage was 0.54. Work on U120A U127C yielded a self-cleavage of 1.67. Variant A126G A135C has a self-cleavage of 0.84. Work on U124C A125G yielded a self-cleavage of 1.32. U120A A135G gave a self-cleavage of 1.1. G115A A134G showed a self-cleavage of 0.12. Variant A116G A135G has a self-cleavage of 0.5. With A118G G137A the self-cleavage was 0.86. Work on U122C G138U yielded a self-cleavage of 1.37. A111U A117G showed a self-cleavage of 0.06. In the case of U127A U130A, the self-cleavage is reported as 1.95. For A126G A129G, the self-cleavage was 0.97. For C121A G137A, the self-cleavage was 1.87. Variant A114G U127A has a self-cleavage of 0.47. With A117U U130C the self-cleavage was 1.05. Variant A116G U130A has a self-cleavage of 0.51. Work on G123A A135G yielded a self-cleavage of 2.16. A110G U132A gave a self-cleavage of 0.19. Work on U122G A129U yielded a self-cleavage of 1.75. For A125U U131C, the self-cleavage was 2.47. A126G U127C showed a self-cleavage of 0.83. Work on A126G U127A yielded a self-cleavage of 1.77. Variant A126G U139A has a self-cleavage of 0. With A110U C113U the self-cleavage was 0.02. With A114U A134G the self-cleavage was 0.04. Variant U124C A126G has a self-cleavage of 0.48. For A125U A126G, the self-cleavage was 1.04. For A110G G138U, the self-cleavage was 0.13. A117G C128A gave a self-cleavage of 1.07. Variant U120A U133A has a self-cleavage of 1.81. For A117G U124C, the self-cleavage was 0.69. For A116U A126U, the self-cleavage was 0.21. For U120C U122A, the self-cleavage was 0.26. With U120C U122G the self-cleavage was 2.61.
